Test results reported in article PMC2758918 (Nature structural & molecular biology, 2009).

B1: zinc transporter YiiP from Escherichia coli (natural protein, UniProt P69380 1-300, looked up)
chain: MNQSYGRLVSRAAIAATAMASLLLLIKIFAWWYTGSVSILAALVDSLVDIGASLTNLLVVRYSLQPADDNHSFGHGKAESLAALAQSMFISGSALFLFLTGIQHLISPTPMTDPGVGVIVTIVALICTIILVSFQRWVVRRTQSQAVRADMLHYQSDVMMNGAILLALGLSWYGWHRADALFALGIGIYILYSALRMGYEAVQSLLDRALPDEERQEIIDIVTSWPGVSGAHDLRTRQSGPTRFIQIHLEMEDSLPLVQAHMVADQVEQAILRRFPGSDVIIHQDPCSVVPREGKRSMLS
modifications: ethyl mercury phosphate or thiomerosal bound to C127 (crystal derivatives)
B2: YiiP^C127V doubly labeled with Alexa-488 and Alexa-647 (natural protein, Escherichia coli, UniProt P69380 1-300, looked up)
chain: MNQSYGRLVSRAAIAATAMASLLLLIKIFAWWYTGSVSILAALVDSLVDIGASLTNLLVVRYSLQPADDNHSFGHGKAESLAALAQSMFISGSALFLFLTGIQHLISPTPMTDPGVGVIVTIVALIVTIILVSFQRWVVRRTQSQAVRADMLHYQSDVMMNGAILLALGLSWYGWHRADALFALGIGIYILYSALRMGYEAVQSLLDRALPDEERQEIIDIVTSWPGVSGAHDLRTRQSGPTRFIQIHLEMEDSLPLVQAHMVADQVEQAILRRFPGSDVIIHQDPCSVVPREGKRSMLS
modifications: Alexa donor-acceptor pair (Alexa-488, Alexa-647) on cysteine (Cys287)

Columns and labels:
crystal structure = target: the molecule itself; test: crystal structure
FRET or BRET = target: the molecule itself; test: FRET or BRET

Protein | stoichiometry N (crystal structure) | binding result (FRET or BRET)
B1 | 2 | 
B2 |  | binds
